Assay results reported in publication PMC8355051 (Nature biotechnology, 2021).

Tests used:
[1] = biological target: Biotinylated Spike RBD protein (SARS-CoV-2, UniProt P0DTC2, biotin); assay: BLI
[2] = biological target: Spike-RBD-15aa-LgBiT-12xHisTag (SARS-CoV-2, UniProt P0DTC2); assay: split reporter
[3] = biological target: Spike-RBD-25aa-SmBiT-12xHisTag (SARS-CoV-2, UniProt P0DTC2); assay: split reporter

Measured: binding result

B1: C105 IgG (antibody, V domains shown)
VH: QVQLVESGGGLIQPGGSLRLSCAASGFTVSSNYMSWVRQAPGKGLEWVSVIYSGGSTYYADSVKGRFTISRDNSKNTLYLQMNSLRAEDTAVYYCARGEGWELPYDYWGQGTLVTVSS
VL: QSALTQPPSASGSPGQSVTISCTGTSSDVGGYKYVSWYQQHPGKAPKLMIYEVSKRPSGVPDRFSGSKSGNTASLTVSGLQAEDEADYYCSSYEGSNNFVVFGGGTKLTVL
binds: [1] | [2] | [3]
